Key:
Assay in all cases: EMSA; EMSA: 5 ug GST fusion or 10 ng IVT protein, 25 C 30 min; 5% native PAGE in 0.5x TBE at 4 C; binding buffer, salt and pH not given
IVT-JDP2 = biological target: T1, IVT-JDP2 (mouse, UniProt P97875 1-163); settings: protein: ivt; chain copies: 2; label: 32P 5' end (T4 kinase) as probe; blunt
T1 sequence: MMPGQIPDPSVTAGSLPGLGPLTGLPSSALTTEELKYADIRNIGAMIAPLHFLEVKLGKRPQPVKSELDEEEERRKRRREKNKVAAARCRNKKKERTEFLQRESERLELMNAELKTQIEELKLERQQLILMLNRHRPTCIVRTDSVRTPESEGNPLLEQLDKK

GST-JDP2 = biological target: T2, GST-JDP2 (mouse, UniProt P97875 1-163); settings: protein: recombinant; tags: GST; chain copies: 2; label: 32P 5' end (T4 kinase) as probe; blunt
T2 sequence: T1 sequence

IVT-MafK = IVT-MafK (rat, UniProt Q8K4B3 1-156); settings: protein: ivt; chain copies: 2; label: 32P 5' end (T4 kinase) as probe; blunt
IVT-MafK, sequence (Q8K4B3 entry or part of it): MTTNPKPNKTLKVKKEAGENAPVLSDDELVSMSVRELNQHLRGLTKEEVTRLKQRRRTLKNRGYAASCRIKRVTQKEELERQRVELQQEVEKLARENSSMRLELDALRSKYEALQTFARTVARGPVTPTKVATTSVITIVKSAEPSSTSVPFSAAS

Measured: binding result

B1: human NQO1-ARE WT (dsDNA)
DNA 1: CAGTCACAGTGACTCAGCAGAATCT
DNA 2: AGATTCTGCTGAGTCACTGTGACTG
binds: all assays above

Source: publication PMC3847324, “Jun dimerization protein 2 is a critical component of the Nrf2/MafK complex regulating the response to ROS homeostasis”
